Experimental data taken from doi:10.1101/163188.

Legend:
[1] = tested on: TePif1 (Thermotoga elfii (Pseudothermotoga elfii)); assay: EMSA
[2] = tested on: TePif1-4x (Thermotoga elfii (Pseudothermotoga elfii)); assay: EMSA

3' tail was tested, and the binding signal [1] was greater than 20 % bound.

Substance 5' tail has a Kd [1] of 4.53 nM.

Fork was tested, and the Kd [1] was 4.4 nM.

Work on “TTTTTTTTTTTTTTTTTTTTTTTTTTTTTTTTTTTTTTTTTTTTTTTTTT [poly(dT) 50mer]” yielded a binding signal [2] of 5 % bound.

Work on ssDNA 45-nt yielded a Kd [1] of 0.93 nM.
